The results in this text go back to patent US20130270124, “BIOSENSOR ELECTRODE FOR HER2 DETECTION, A METHOD FOR PRODUCING IT, A METHOD FOR REGENERATING IT” (RESEARCH & BUSINESS FOUNDATION SUNGKYUNKWAN UNIVERSITY, published 2013).

One data set concerns the target HER2 (ErbB2) (UniProt P04626 P04626:23-652). Briefly: electrochemical impedance on Au/MPA/aptamer electrode; dRet linear 5-50 ng/ml (y=18.97x+160.2, R2=0.99882), saturates 50-500 ng/ml; PBS, 30 min. The following applies: tags: R&D Systems; label: 5'-amine, amide-coupled to MPA on gold electrode. As for the experimental part: (§1) A conventional three-electrode cell was used for performing electrochemical impedance spectroscopy (EIS). Ag/AgCl and a platinum (Pt) plate were respectively used as a reference electrode and an opposite electrode. In every modification and detection stage, an operating electrode was detected by EIS in a 2 mM Fe(CN)6^{3-/4-}(1:1)/PBS solution. An amplitude-sine wave of about 10 mV was applied in a frequency range of about 0.1 Hz to 100 kHz.
After immobilization of the NH₂-ssDNA, the modified gold electrode was incubated in a series of HER2/PBS solutions of different concentrations for 30 minutes each, and then washed with DI water. A series of HER2/PBS solutions of 5 ng/ml to 500 ng/ml concentrations were fabricated in order to confirm a range of soluble concentration.
After the aptamer (NH₂-ssDNA) was immobilized, the modified gold electrode was incubated in a series of HER2/PBS solutions of a range 5.0 to 50 ngmL⁻¹. The modified gold electrode was detected by EIS after each incubation. The difference of electron-transfer resistance ΔRₑₜ between the aptamer-modified gold electrode and the HER2-incubated gold electrode was obtained from a signal formed by a reaction between the immobilized aptamer and the HER2.

Data set [1] has as its target Bovine serum albumin (BSA) (Bos taurus, UniProt P02769 P02769:25-607). Put plainly: impedance; 20 ug/ml BSA in PBS, 30 min, Ret unchanged. Conditions: tags: Sigma-Aldrich; label: 5'-amine, amide-coupled to MPA on gold electrode. As for the experimental part:
as §1
EIS data was measured to investigate specificities of the aptamer with respect to other proteins existing blood, such as BSA and IgG. The EIS data of the aptamer-attached electrode was measured (block line), and then the aptamer-attached electrode was immersed in 20 μg/ml concentrations of BSA solution and IgG solution each for 30 minutes. […] Then, when the aptamer-attached electrode was immersed in a solution in which 30 ng/ml HER2 was added to a 20 μg/ml BSA/IgG solution for 30 minutes, the Rₑₜ value increased.

Sequence of Bovine serum albumin (BSA) (P02769 25-607, one chain of several): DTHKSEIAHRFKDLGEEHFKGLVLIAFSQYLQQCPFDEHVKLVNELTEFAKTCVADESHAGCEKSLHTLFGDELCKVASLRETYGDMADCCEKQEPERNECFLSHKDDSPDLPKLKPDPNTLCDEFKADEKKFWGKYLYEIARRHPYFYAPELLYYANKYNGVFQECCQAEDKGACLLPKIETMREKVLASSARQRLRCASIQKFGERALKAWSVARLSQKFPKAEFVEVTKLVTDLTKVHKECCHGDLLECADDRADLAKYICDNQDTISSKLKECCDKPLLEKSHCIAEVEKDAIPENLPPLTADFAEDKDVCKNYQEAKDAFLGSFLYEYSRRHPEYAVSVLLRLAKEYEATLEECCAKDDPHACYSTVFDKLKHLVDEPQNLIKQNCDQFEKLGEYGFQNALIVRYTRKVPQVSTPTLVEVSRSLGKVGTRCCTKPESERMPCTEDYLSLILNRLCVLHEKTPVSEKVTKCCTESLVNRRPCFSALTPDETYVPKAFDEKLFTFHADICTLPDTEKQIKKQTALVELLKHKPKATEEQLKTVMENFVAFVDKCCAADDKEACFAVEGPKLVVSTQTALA

B1: HER2 NH2-aptamer (ssDNA)
DNA: CTTCTGCCCGCCTCCTTCCTGGGGCCTGGATACGGATTGGTAAGGATTAGTAGGGGGCATAGCTGGAGACGAGATAGGCGGACACT
modifications: 5'-amino modifier C6
Turning to B1, the binding result with HER2 (ErbB2) is given as “binds”; in data set [1] it was “no binding”.
